Experimental data taken from EP3917571B1.

Biological target: ERp57 (PDIA3), human, endogenous in MDA-MB-231 ER-G2 cells (human) (UniProt P30101)
Assay: proximity ligation assay on live, intact cells (probes ab10286 and ab13506)

Chain of UniProt P30101 (P30101 25-505): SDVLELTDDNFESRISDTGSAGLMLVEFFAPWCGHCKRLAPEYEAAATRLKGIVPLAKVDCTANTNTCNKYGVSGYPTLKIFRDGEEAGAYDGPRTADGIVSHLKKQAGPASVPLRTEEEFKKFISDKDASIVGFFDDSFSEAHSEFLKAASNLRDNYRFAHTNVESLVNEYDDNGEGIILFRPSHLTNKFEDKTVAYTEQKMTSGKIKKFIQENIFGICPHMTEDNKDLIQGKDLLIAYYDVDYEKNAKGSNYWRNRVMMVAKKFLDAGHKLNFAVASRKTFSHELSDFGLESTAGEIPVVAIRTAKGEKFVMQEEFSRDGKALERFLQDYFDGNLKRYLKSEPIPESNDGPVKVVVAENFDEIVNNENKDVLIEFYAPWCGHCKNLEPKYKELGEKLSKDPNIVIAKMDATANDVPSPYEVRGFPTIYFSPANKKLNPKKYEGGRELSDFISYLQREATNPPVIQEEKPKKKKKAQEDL

B1: Calnexin (Cnx), human, endogenous in MDA-MB-231 ER-G2 and Huh7 cells (protein, UniProt P27824 21-592, looked up)
chain: HDGHDDDVIDIEDDLDDVIEEVEDSKPDTTAPPSSPKVTYKAPVPTGEVYFADSFDRGTLSGWILSKAKKDDTDDEIAKYDGKWEVEEMKESKLPGDKGLVLMSRAKHHAISAKLNKPFLFDTKPLIVQYEVNFQNGIECGGAYVKLLSKTPELNLDQFHDKTPYTIMFGPDKCGEDYKLHFIFRHKNPKTGIYEEKHAKRPDADLKTYFTDKKTHLYTLILNPDNSFEILVDQSVVNSGNLLNDMTPPVNPSREIEDPEDRKPEDWDERPKIPDPEAVKPDDWDEDAPAKIPDEEATKPEGWLDDEPEYVPDPDAEKPEDWDEDMDGEWEAPQIANPRCESAPGCGVWQRPVIDNPNYKGKWKPPMIDNPSYQGIWKPRKIPNPDFFEDLEPFRMTPFSAIGLELWSMTSDIFFDNFIICADRRIVDDWANDGWGLKKAADGAAEPGVVGQMIEAAEERPWLWVVYILTVALPVFLVILFCCSGKKQTSGMEYKKTDAPQPDVKEEEEEKEEEKDKGDEEEEGEEKLEEKQKSDAEEDGGTVSQEEEDRKPKAEEDEILNRSPRNRKPRRE
modifications: O-GalNAc (Tn) glycosylation mapped at T50, T59, T66, T79, S81 and S86 after GALA activation
- proximity ligation assay signal, fold increase in MDA ER-G2 over wild-type MDA cells: 10 fold
